The target in the series is PKCβII of mouse brain (UniProt P68404).
Chain of PKCβII of mouse brain (P68404 other isoform, or with tags, fused parts or gaps): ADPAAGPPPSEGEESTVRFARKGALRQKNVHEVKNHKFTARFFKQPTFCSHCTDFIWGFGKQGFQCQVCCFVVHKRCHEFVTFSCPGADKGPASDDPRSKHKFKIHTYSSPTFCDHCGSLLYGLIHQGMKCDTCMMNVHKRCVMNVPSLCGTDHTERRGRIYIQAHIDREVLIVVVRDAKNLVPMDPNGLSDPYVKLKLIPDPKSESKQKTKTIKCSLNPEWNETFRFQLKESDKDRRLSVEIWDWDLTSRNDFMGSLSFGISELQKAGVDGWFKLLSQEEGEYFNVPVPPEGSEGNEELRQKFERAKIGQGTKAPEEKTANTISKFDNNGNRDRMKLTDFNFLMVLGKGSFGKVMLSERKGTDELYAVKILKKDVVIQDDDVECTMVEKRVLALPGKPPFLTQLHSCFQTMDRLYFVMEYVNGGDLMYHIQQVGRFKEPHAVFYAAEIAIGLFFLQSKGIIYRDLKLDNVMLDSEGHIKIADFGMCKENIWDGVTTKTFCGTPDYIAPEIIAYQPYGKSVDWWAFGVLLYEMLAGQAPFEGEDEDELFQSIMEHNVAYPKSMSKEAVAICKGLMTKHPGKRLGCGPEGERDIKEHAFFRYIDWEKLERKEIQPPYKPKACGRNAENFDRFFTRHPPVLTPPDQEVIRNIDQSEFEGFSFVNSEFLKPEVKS

Turning to “human "readthrough" acetylcholinesterase variant AChE-R, recombinant full protein”, the “PKC activity in brain homogenates (PKC assay kit, Upstate Biotechnology)” value is “Note the elevation of PKC activity in the different brain regions in the AChE-R transgenics as compered to FVB/N controls”.
